Experimental findings from a protein production outcome set (Wang et al. 2014) are described below.

This data set can be described thus: label from the status in PepcDB records.
For the sequence “MDTGDKEAGEQIVCKPSFFRVSDNHHHPSRAGCPLHQGQARTGSGSPRGQVAGAEKGGDEGGRRGSGGGSSEPRDRRRREQPRAAGDEDGSAGRAHGAQGHGHGGVCGARSQRPALLKPGSRRARGAGGGRMERKGLAARASGNPSPPALGEGPRPGPPPCVPSGGGAPERGQAGAAAEPAELIRRAHEFKSQGAQCYKDKKFREAIGKYHRALLELKGLLPPPGERERDARPASPAGIPKASRLSEEQSKTVEAIEIDCYNSLAACLLQAELVNYERVKEYCLKVLKKEGENFKALYRAGVAFYHLGDYDKALYYLKEARTRQPSDTNVIRYIQLTEMKLSRCSQREKEAM”, the protein production result is given as “failed”.
Take “MNEDLAVIVYTSGTTGNPKGVMITYENIKTNMEGVRAVDLVTETDVILAMLPYHHIMPLCFTLILPMYMGVPIVLLTEISSASLLKALQENRVTVILGVPRVWEMLDKAIMTKINQSSLAKFMFKMASKINSMSIRKMLFSKVHKQFGGNIRLMVSGGAKIDKNILEDFRTMGFCAIQGYGMTETAPIITFNVPGRERSDSAGLEHHHHHH”: the protein production entry was “failed”.
Regarding “MQKRAYLLIAVSGSLWGTIGIFVRELYGLGFSTLQIVTMRVFSAAVIMLLYLLFTKPELLKIRFRDSLYFVGTGILSIVFFNLCYFITIRETSIAIAVTLLYTAPAFVAILSRIIFRESLDAKKLFSLGLTLTGCAFVTGYLPELGNSPSITLPWLLTGLGAGFGYALYSIFGKVALKKYDTVTITAYTFFFASLALLPLVSFETSGEAFSTGSFWTYLIGLGFFPTVLAYLLYTKGLEEVESSRAAIVATVEPVVATFAGFFFFREIVSGWQLAGILFVLAGVVLIQERK”, the protein production result is listed as “failed”.
Take “MSLAVTMFKRARAEIFDRNREVGISNVTTAASLVTFPVLAGILGGVVPSVRTPSAAMVSGVQHFAAGIVMAAVAGEVLPDLRSRGPLWLIVVGFSAGVAVLVALRRFDGHGEHQDGDDVGELPVGFLTVVAVDLFIDGLLVATGATVSSRTAIIITIALTVEVLFLGLAVALRLAGSGMPRIRAAATTSALSLVIAVGGVSGAVALGRAGNTVLTLVLAFAAGALLWLVVEELLVEAHETPERPWMAVMFFAGFLILYGLGVME”: the protein production entry is on record as “failed”.
As to “SDSAFANLDAAGFLQIWQHFDADDNGYIEGKELDDFFRHMLKKLQPKDKITDERVQQIKKSFMSAYDATFDGRLQIEELANMILPQEENFLLIFRREAPLDNSVEFMKIWRKYDADSSGYISAAELKNFLKDLFLQHKKKIPPNKLDEYTDAMMKIFDKNKDGRLDLNDLARILALQENFLLQFKMDASSQVERKRDFEKIFAHYDVSRTGALEGPEVDGFVKDMMELVRPSISGGDLDKFRECLLTHCDMNKDGKIQKSELALCLGLKHKP”, the protein production entry is on record as “not failed”.
Turning to “MAALLGIVSPVTFTGKHPVNSRSRRRTVVKCSNERRILFNRIAPVYDNLNDLLSLGQHRIWKNMAVSWSGAKKGDYVLDLCCGSGDLAFLLSEKVGSTGKVMGLDFSSEQLAVAATRQSLKARSCYKCIEWIEGDAIDLPFDDCEFDAVTMGYGLRNVVDRLRAMKEMYRVLKPGSRVSILDFNKSNQSVTTFMQGWMIDNVVVPVATVYDLAKEYEYLKYSINGYLTGEELETLALEAGFSSACHYEISGGFMGNLVAMR”, the protein production entry is listed as “failed”.
To “MDVDVDVDVEMDMDMDMYVALVEVEVEVFLLRTQILTESRKGRMITNMKKPNGNVTNVCDRCGGNGHWFHTCRIPKYLVELYKQSLKQDGKNTETNLVYEKGEDDTTHMELDDFLTHDGNIDS” belongs “failed”; to “MARGREAVTLLLVGWGYAPGMQTLEALDAVRRADVVYVESYTMPGSSWLYKSVVEAAGEARVVEASRRDLEERSREIVSRALDAVVAVVTAGDPMVATTHSSLAAEALEAGVAVRYIPGVSGVQAARGATMLSFYRFGGTVTLPGPWRGVTPISVARRIYLNLCAGLHTTALLDVDERGVQLSPGQGVSLLLEADREYAREAGAPALLARLPSVLVEAGAGGGHRVLYWSSLERLSTADVEGGVYSIVIPARLSGVEEWLLAAASGQRRPLEYDRSVYETVEENCKKGVYMEPV”, “not failed”.
